Data: paper PMC11665612

Experiments:
[1] = biological target: heme-binding globin domain of human androglobin (Adgb), Cys132 mutated to Ser (human)
[2] = biological target: FL-G41C CaM (calmodulin G41C labelled with fluorescein-5-maleimide at Cys41, N-lobe) (UniProt P0DP23); test: fluorescence quenching on mixing

Substance | k1 (fast) of nitrite reduction, Adgb–CaM complex against Adgb alone [1] [fold] | kcat of nitrite reduction by the Adgb–CaM complex (nitrite 2.5–15 mM) [1] [s⁻¹] | decrease in fluorescence intensity at 531 nm [2] [%]
calmodulin (CaM) (from UniProt P0DP23 1-149) (natural protein) | 1.8 | 0.64 | 
heme-binding globin domain of human androglobin (Adgb), Cys132 mutated to Ser (domain or fragment) |  |  | 35
